Molecular target: T1, α-2 macroglobulin (Homo sapiens (Human), UniProt P01023 24-1474, Native alpha-2-macroglobulin is a glycosylated homotetramer (disulfide-linked dimers) with an internal thioester; one subunit is given.)
T1 construct: also called alpha-2 macroglobulin
T1 sequence: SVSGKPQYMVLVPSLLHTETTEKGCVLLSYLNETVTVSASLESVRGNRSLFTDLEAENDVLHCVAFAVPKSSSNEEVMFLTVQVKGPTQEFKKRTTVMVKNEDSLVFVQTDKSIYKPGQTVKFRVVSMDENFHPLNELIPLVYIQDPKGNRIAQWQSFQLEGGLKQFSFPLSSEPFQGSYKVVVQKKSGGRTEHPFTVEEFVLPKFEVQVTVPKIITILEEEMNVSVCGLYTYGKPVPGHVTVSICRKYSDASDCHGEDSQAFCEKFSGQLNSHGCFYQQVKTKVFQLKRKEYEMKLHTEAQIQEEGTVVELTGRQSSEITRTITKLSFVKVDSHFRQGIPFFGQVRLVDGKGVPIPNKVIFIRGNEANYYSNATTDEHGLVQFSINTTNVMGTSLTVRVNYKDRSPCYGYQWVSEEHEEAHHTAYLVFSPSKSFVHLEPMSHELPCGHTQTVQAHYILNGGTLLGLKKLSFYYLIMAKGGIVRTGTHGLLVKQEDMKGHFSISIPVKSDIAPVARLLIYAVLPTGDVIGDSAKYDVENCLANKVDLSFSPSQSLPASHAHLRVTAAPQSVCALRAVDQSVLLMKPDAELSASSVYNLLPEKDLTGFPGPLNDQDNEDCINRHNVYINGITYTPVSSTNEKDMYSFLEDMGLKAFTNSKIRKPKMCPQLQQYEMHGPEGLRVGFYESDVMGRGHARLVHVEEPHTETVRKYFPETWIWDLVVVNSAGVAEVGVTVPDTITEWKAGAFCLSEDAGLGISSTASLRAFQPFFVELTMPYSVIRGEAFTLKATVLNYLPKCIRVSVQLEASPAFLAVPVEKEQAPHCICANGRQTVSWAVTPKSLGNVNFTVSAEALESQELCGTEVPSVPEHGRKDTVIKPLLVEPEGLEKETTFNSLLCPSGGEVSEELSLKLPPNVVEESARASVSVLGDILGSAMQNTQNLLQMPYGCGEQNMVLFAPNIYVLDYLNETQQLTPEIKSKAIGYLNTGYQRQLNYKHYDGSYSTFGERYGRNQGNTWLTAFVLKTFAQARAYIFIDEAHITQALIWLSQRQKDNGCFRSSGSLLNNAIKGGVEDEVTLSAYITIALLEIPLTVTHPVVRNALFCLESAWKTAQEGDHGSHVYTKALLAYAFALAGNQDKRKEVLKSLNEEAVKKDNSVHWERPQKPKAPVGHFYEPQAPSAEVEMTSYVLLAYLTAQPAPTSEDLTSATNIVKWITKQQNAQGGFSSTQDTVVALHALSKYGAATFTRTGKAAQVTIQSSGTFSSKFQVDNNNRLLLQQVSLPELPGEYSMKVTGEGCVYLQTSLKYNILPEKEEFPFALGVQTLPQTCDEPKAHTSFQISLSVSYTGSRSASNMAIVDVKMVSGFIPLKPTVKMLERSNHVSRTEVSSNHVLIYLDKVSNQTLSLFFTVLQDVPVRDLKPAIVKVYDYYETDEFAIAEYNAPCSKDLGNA
Assay: competition binding assay, immobilized α-2 macroglobulin
Method: OP-1 was determined to interact specifically with α-2 macroglobulin in a standard competition binding assay, using immobilized, commercially available α-2 macroglobulin, and labeled and unlabeled OP-1 protein. […] This N-terminal portion of the protein, which is not part of the crystal structure, is positively charged and likely is highly flexible in solution.

fold less affinity (against untruncated OP-1): 10 fold
B1: Truncated mature OP-1 (ligand, UniProt P18075 315-431, looked up)
chain: MANVAENSSSDQRQACKKHELYVSFRDLGWQDWIIAPEGYAAYYCEGECAFPLNSYMNATNHAIVQTLVHFINPETVPKPCCAPTQLNAISVLYFDDSSNVILKKYRNMVVRACGCH
notes: range 23-139; The range is on mature-protein numbering (His 139 = C-terminus); also called truncated mature OP-1 (first 22 amino acids cleaved by trypsin)
